What was measured:
Format in all cases: biochemical, Lactobacillus minor
[1] = pH optimum of the enzymic reaction; details: 30° C.
Method: As in the standard assay, the concentration of ethyl 4-chloro-3-oxo-butanoate and of NADPH was 10 mM and 0.19 mM, respectively. The reaction was determined at 30° C.

[2] = Temperature stability of L. minor alcohol dehydrogenase; details: for temperature up to which the enzyme is stable: 30 min incubation; for Activity in % (n = 4): measured at 30° C.
Method: The temperature stability for the range from 25° C. to 50° C. was determined similarly to the manner described in A.). For this purpose, in each case a 1:100 dilution of the purified enzyme was incubated at the particular temperature for 30 min and then measured at 30° C. using the above assay procedure. Here too, the starting value used was the measured value obtained immediately after diluting the enzyme in triethanolamine buffer 50 mM pH=7.0. This value was also set here as 100% value. L. minor alcohol dehydrogenase is stable up to a temperature of 40° C. Thereafter, the activity rapidly declines.

[3] = tested on: L. minor alcohol dehydrogenase; experiment: Enzyme stability under process conditions; details: for several days
Method: The stability of the enzyme under process conditions was studied by diluting L. minor alcohol dehydrogenase 1:100 with the solvent mixtures used in the two-phase system, followed by incubation at room temperature. 10 μl of the enzyme solution were then used in the standard assay mixture. Table 8 depicts the enzyme activities as a % of the starting value.

[4] = pH stability of cloned L. minor alcohol dehydrogenase
Method: The activity of the enzyme as a function of storage in buffers with different pH values in the range from pH 4 to 11 was studied. For this purpose, various buffers (50 mM) in the range from pH 4 to 11 were prepared and the enzyme purified in Example 2 was diluted 1:100 therein and incubated for 30 min. All buffers contained 1 mM MgCl2. 10 μl of this were then used in the normal enzyme assay (triethanolamine buffer 100 mM pH=7.0, 1 mM MgCl2, 10 mM ethyl 4-chloro-3-oxo-butanoate and 0.19 mM NADPH). The reaction was monitored at 30° C. and 340 nm for 1 min.
The starting value here is the measured value obtained immediately after diluting the enzyme in triethanolamine buffer 50 mM pH=7.0. Under predefined conditions, this value corresponded to a change in extinction of 0.20/min and was set as 100% value, with all subsequent measured values being related to this value.

[5] = Enzyme obtainment and purification: activity of crude extract and purified enzyme; details: for volume activity: 25° C.
Method: The enzyme was obtained by culturing the strain with the highest enzymic activity in a fermenter (fed batch, 10 l) and inducing it at 40 OD500 with 1 mM IPTG. After 18 h, the cells were harvested, taking up 300 g of cells in 3 l of Kpi buffer (50 mM, pH=7, 1 mM MgCl2) and disrupted subsequently by means of a French press (Gaullin, Siemens).
To characterize the enzyme, a portion of the enzyme obtained was purified by means of […] chromatography on Q-Sepharose ff (fast flow). For this purpose, the column used was equilibrated with 50 mM Kpi buffer pH=7.0, 1 mM MgCl2. After application of the crude extract to the column and brief washing with equilibration buffer, the enzyme was eluted with an increasing linear salt gradient (0-1M NaCl, 1 ml/min) at a salt concentration of about 0.3 M NaCl. […] The enzyme purified in this way thus has a specific activity of approximately 35 to 40 U/mg of protein.
All enzymic activities were determined at 25° C. The enzyme activity was calculated as follows: • Calculation: 1 unit=conversion of 1 μmol of substrate per min • Lambert-Beer law • NADPH decrease was monitored at 340 nm (see enzymic assay mixture)=ΔE/min • N=enzyme dilution factor • V=enzyme volume in ml (0.01) • Vcuvette=cuvette volume=1 ml • d=cuvette light path=1 cm • eNADPH NADPH extinction coefficient=6.22 [mM^−1*cm^−1] • Activity=(ΔE/min*N*Vcuvette)/(eNADPH*V*d)
Protein determination was carried out according to Bradford (Bio-Rad Laboratories GmbH, Protein Assay).

[6] = Temperature optimum of the enzymic reaction
Method: The optimal assay temperature was determined by measuring the enzyme activity from 25° C. to 60° C. The assay mixture corresponded to the standard concentration of ethyl 4-chloro-3-oxo-butanoate and NADPH.

[7] = crude extract after fermentation and French press

B1: L. minor alcohol dehydrogenase: R-specific alcohol dehydrogenase from Lactobacillus minor, SEQ ID NO: 4, overexpressed in Escherichia coli RB 791 (protein, listed as Lactobacillus sp.)
chain: MRGSHHHHHHGSMTDRLKGKVAIVTGGTLGIGLAIADKFVEEGAKVVITGRHADVGEKAARSIGGTDVIRFVQHDASDETGWTKLFDTTEEAFGPVTTVVNNAGIAVSKSVEDTTTEEWRKLLSVNLDGVFFGTRLGIQRMKNKGLGASIINMSSIEGEVGDPALGAYNASKGAVRIMSKSAALDCALKDYDVRVNTVHPGYIKTPLVDDLEGAEEMMSQRTKTPMGHIGEPNDIAWICVYLASDESKFATGAEFVVDGGYTAQ
[1]; assay at pH 4, sodium acetate/acetic acid
  Activity in U/ml of undiluted enzyme: 85 U/ml
[1]; assay at pH 4.5, sodium acetate/acetic acid
  Activity in U/ml of undiluted enzyme: 132 U/ml
[1]; assay at pH 5, MES/NaOH
  Activity in U/ml of undiluted enzyme: 218 U/ml
[1]; assay at pH 5.5, MES/NaOH
  Activity in U/ml of undiluted enzyme: 240 U/ml
[1]; assay at pH 6, triethanolamine/NaOH
  Activity in U/ml of undiluted enzyme: 381 U/ml
[1]; assay at pH 6.5, triethanolamine/NaOH
  Activity in U/ml of undiluted enzyme: 349 U/ml
[1]; assay at pH 7, triethanolamine/NaOH
  Activity in U/ml of undiluted enzyme: 510 U/ml
[1]; assay at pH 7.5, tris/HCl
  Activity in U/ml of undiluted enzyme: 707 U/ml
[1]; assay at pH 8, tris/HCl
  Activity in U/ml of undiluted enzyme: 585 U/ml
[1]; assay at pH 8.5, tris/HCl
  Activity in U/ml of undiluted enzyme: 486 U/ml
[1]; assay at pH 9, tris/HCl
  Activity in U/ml of undiluted enzyme: 488 U/ml
[1]; assay at pH 10, glycine/NaOH
  Activity in U/ml of undiluted enzyme: 131 U/ml
[1]; assay at pH 11, glycine/NaOH
  Activity in U/ml of undiluted enzyme: 0 U/ml
[2]
  temperature up to which the enzyme is stable: ≤ 40 °C
[2]; listed as Lactobacillus minor alcohol dehydrogenase
  temperature up to which the enzyme is stable: about 40 °C
[2]; after 30 min at 25° C.
  Activity in % (n = 4): 101 ± 3.2%
[2]; after 30 min at 30° C.
  Activity in % (n = 4): 81.2 ± 5.8%
[2]; after 30 min at 35° C.
  Activity in % (n = 4): 67.0 ± 1.6%
[2]; after 30 min at 37° C.
  Activity in % (n = 4): 20.2 ± 2.4%
[2]; after 30 min at 40° C.
  Activity in % (n = 4): 33.4 ± 3.8%
[2]; after 30 min at 42° C.
  Activity in % (n = 4): 0 ± 0%
[2]; after 30 min at 45° C.
  Activity in % (n = 4): 0 ± 0%
[2]; after 30 min at 50° C.
  Activity in % (n = 4): 0 ± 0%
[3]
  stability in the combination of solvents used in the two-phase system (in words): stable and active
[4]; after 30 min at pH 4, sodium acetate/acetic acid 50 mM, 100% = value directly after dilution
  Activity in % (n = 2): 87.5 ± 6.5%
[4]; after 30 min at pH 4.5, sodium acetate/acetic acid 50 mM
  Activity in % (n = 2): 94.5 ± 3.0%
[4]; after 30 min at pH 5, MES/NaOH 50 mM
  Activity in % (n = 2): 55 ± 5%
[4]; after 30 min at pH 5, sodium acetate/acetic acid 50 mM
  Activity in % (n = 2): 94.5 ± 1.5%
[4]; after 30 min at pH 5.5, KH2PO4/K2PO4 50 mM
  Activity in % (n = 2): 96 ± 3%
[4]; after 30 min at pH 5.5, MES/NaOH 50 mM
  Activity in % (n = 2): 77.1 ± 2.1%
[4]; after 30 min at pH 6, KH2PO4/K2PO4 50 mM
  Activity in % (n = 2): 100 ± 0%
[4]; after 30 min at pH 6, triethanolamine/NaOH 50 mM
  Activity in % (n = 2): 100 ± 0%
[4]; after 30 min at pH 6.5, KH2PO4/K2PO4 50 mM
  Activity in % (n = 2): 97.5 ± 2.5%
[4]; after 30 min at pH 6.5, triethanolamine/NaOH 50 mM
  Activity in % (n = 2): 100 ± 0%
[4]; after 30 min at pH 7, KH2PO4/K2PO4 50 mM
  Activity in % (n = 2): 100 ± 0%
[4]; after 30 min at pH 7, triethanolamine/NaOH 50 mM
  Activity in % (n = 2): 97.9 ± 2.1%
[4]; after 30 min at pH 7.5, KH2PO4/K2PO4 50 mM
  Activity in % (n = 2): 97.5 ± 7.5%
[4]; after 30 min at pH 7.5, tris/HCl 50 mM
  Activity in % (n = 2): 94.6 ± 1.3%
[4]; after 30 min at pH 8, KH2PO4/K2PO4 50 mM
  Activity in % (n = 2): 93.0 ± 3.0%
[4]; after 30 min at pH 8, tris/HCl 50 mM
  Activity in % (n = 2): 89.2 ± 0%
[4]; after 30 min at pH 8.5, KH2PO4/K2PO4 50 mM
  Activity in % (n = 2): 102.5 ± 2.5%
[4]; after 30 min at pH 8.5, tris/HCl 50 mM
  Activity in % (n = 2): 60 ± 4.2%
[4]; after 30 min at pH 9, glycine/NaOH 50 mM
  Activity in % (n = 2): 76.5 ± 1.5%
[4]; after 30 min at pH 9, tris/HCl 50 mM
  Activity in % (n = 2): 63.1 ± 4.8%
[4]; after 30 min at pH 9.5, glycine/NaOH 50 mM
  Activity in % (n = 2): 52.5 ± 7.5%
[4]; after 30 min at pH 10, glycine/NaOH 50 mM
  Activity in % (n = 2): 52.5 ± 7.5%
[4]; after 30 min at pH 11, glycine/NaOH 50 mM
  Activity in % (n = 2): 0.0 ± 0%
[5]; [7]
  activity per wet mass: 20 000 U/g of wet mass
  volume activity: approximately 2000 U/ml
[5]; overexpressed in Escherichia coli RB 791
  activity per wet mass on overexpression in Escherichia coli: 20 000 units/g of wet mass
[5]; purified enzyme, Q-Sepharose ff
  volume activity: about 800 U/ml
[6]; assay temperature 25° C.
  Activity in U/ml of undiluted enzyme: 540 U/ml
[6]; assay temperature 30° C.
  Activity in U/ml of undiluted enzyme: 1235 U/ml
[6]; assay temperature 35° C.
  Activity in U/ml of undiluted enzyme: 1968 U/ml
[6]; assay temperature 40° C.
  Activity in U/ml of undiluted enzyme: 1621 U/ml
[6]; assay temperature 45° C.
  Activity in U/ml of undiluted enzyme: 2469 U/ml
[6]; assay temperature 50° C.
  Activity in U/ml of undiluted enzyme: 2469 U/ml
[6]; assay temperature 55° C.
  Activity in U/ml of undiluted enzyme: 2855 U/ml
[6]; assay temperature 60° C.
  Activity in U/ml of undiluted enzyme: 0 U/ml

Source: patent publication US8361765B2, “Enzymic method for the enantioselective reduction of keto compounds” (IEP GmbH, priority 2001, dated 2013)
